Consider one substance from US20140057847A1.

This assay concerns the target rat growth hormone releasing hormone receptor (rat) (UniProt Q02644). Kind of assay: radioligand competition binding of radioiodinated JV-1-42 to membrane fractions of ischemic rat heart.
Chain of UniProt Q02644 (Q02644 23-464): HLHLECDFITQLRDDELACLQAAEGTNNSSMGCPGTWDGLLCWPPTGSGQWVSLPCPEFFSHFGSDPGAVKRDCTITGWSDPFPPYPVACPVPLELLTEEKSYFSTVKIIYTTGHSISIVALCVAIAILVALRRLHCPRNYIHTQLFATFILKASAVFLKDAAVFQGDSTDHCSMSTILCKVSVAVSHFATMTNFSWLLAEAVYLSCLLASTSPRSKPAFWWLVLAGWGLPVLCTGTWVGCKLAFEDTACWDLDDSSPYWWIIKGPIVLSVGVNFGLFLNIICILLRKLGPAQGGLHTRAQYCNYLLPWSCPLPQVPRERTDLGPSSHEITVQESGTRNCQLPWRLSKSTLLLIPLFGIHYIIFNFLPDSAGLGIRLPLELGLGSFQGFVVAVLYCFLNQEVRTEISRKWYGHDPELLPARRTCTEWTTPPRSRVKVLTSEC

As to “GHRH antagonist JV-1-42 (radioiodinated) (peptide)”, the Bmax (fmol/mg protein) is 51.3 and the Kd was determined as 0.86 nM.

Usually Kd stands for a measure of binding affinity in units of concentration.
